Target: carcinoembryonic antigen (CEA) (human, UniProt P06731 35-685)
Assay: electrochemical aptasensor (interdigitated electrode, sandwich); immobilized aptamer; 0.5-1000 ng/mL CEA in PBS, or spiked in 1:100 human serum; LOD 0.5 ng/mL (not a Kd); PBS or 1:100 diluted human serum; graphene-modified IDE blocked with 1% BSA; pH, salt and temperature not stated
Settings: protein: commercial

Sequence of carcinoembryonic antigen (CEA) (P06731 35-685): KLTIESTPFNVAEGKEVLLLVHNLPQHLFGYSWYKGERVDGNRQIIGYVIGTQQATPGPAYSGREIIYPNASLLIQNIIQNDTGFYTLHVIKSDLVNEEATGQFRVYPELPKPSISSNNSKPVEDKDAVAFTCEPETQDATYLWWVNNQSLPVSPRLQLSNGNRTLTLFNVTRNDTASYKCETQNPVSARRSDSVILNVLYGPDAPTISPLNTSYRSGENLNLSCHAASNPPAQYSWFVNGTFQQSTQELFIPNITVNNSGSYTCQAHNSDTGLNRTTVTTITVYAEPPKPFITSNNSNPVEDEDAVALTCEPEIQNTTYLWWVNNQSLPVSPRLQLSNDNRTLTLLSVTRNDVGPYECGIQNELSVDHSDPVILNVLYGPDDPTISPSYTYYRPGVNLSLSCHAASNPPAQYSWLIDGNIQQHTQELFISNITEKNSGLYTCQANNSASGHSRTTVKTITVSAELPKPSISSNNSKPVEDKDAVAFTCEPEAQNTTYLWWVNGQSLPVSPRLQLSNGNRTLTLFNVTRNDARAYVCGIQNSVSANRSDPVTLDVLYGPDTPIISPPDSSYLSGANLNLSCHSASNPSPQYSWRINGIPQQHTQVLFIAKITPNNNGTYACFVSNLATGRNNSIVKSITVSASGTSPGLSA

Binder: TATCCAGCTTATTCAATT (ssDNA, 3'-NH2) [anti-CEA capture aptamer]
- binding result: binds
